Molecular target: the molecule itself
Assay: H/D exchange followed by proton-detected solid-state NMR; pre-assembled reprotonated pili washed four times with 100% D2O buffer (10 mM sodium phosphate pH 7.0, 0.02% sodium azide), each with 4 h at room temperature; peak volumes of 3D (H)CANH spectra of redeuterated and reprotonated pili compared; 40 kHz MAS, 16.4 T, 17 °C; protection assigned to intra- or intermolecular contacts on the cryo-EM structure PDB 5OH0

B1: FimA, type 1 pilus rod subunit (recombinant, assembled in vitro into type 1 pili) (natural protein, Escherichia coli, UniProt P04128 24-182, looked up)
chain: AATTVNGGTVHFKGEVVNAACAVDAGSVDQTVQLGQVRTASLAQEGATSSAVGFNIQLNDCDTNVASKAAVAFLGTAIDAGHTNVLALQSSAAGSATNVGVQILDRTGAALTLDGATFSSETTLNNGTNTIPFQARYFATGAATPGAANADATFKVQYQ
notes: FimA, major subunit of the type 1 pilus rod of Escherichia coli; Uniformly [2H,13C,15N]-labelled, proton back-exchanged at labile sites; Intramolecular disulfide Cys21-Cys61; In the pilus each subunit's N-terminal donor strand complements the neighbouring subunit; also called polymerized FimA; reprotonated pili
binding result: binds
